What was measured:
NKG2D binding to MICA = NKG2D binding to MICA (Homo sapiens, UniProt Q29983, C59Y/G229S/K148E/K196E/M152V/Q274R/S238T/T236I/T47A/W233R); test: Bead assay for NKG2D receptor binding to MICA; conditions: MICA (allele 008) beads, human NKG2D-Fc dimer 10 μg/ml
Procedure: Streptavidin-conjugated C4 beads (BD Pharmingen) were incubated for 2 hours with MICA biotinylated at a C-terminal BirA site (200 ng of MICA per 10,000 beads). Beads were then washed with PBS containing 1% FBS. For the NKG2D receptor binding assay, chimeric human NKG2D-Fc dimer (1299-NK-050, R&D Systems) was conjugated with Alexa^488 (A10468, Molecular Probes) and used at 10 μg/ml. Binding of murine NKG2D to human MICA was measured using NKG2D-Fc dimers (10 μg/ml) followed by an Alexa^488-conjugated anti-human IgG (Molecular Probes) that bound to the Fc region of the NKG2D-Fc dimer. MICA antibodies were also used as competitors for NKG2D dimer binding at concentrations of 10, 30 and 100 μg/ml. In these assays, NKG2D dimer and MICA antibodies were co-incubated with biotinylated MICA*008-conjugated beads.

[1] = test system: short-term human melanoma cell lines; test: MICA/MICB shedding by short-term human melanoma cell lines; format: cell-based; conditions: 24-72 hours
Source text: A375, HCT-116, SK-N-SH, K562, A2058, B16F10, CT26, and Neuro-2a cell lines were all obtained from American Type Culture Collection (ATCC). HEPG2 and MDA-MB-231 cell lines were kindly provided by Drs. Chandan Sharma and Martin Hemler, Dana-Farber Cancer Institute, Boston. The EL4 and RMA-S cell lines were generous gifts from Dr. Mark Smyth, QIMR Berghofer Medical Research Institute, Herston, Australia. The short-term human melanoma cell lines CY.21A-S1, CY36-S1, and CY048-S were obtained from patients following surgical resection of metastatic lesions as previously described (27). All cell lines were mycoplasma free, as tested by MycoProbe Mycoplasma Detection Kit (R&D Systems). Human and murine cell lines were cultivated in RPMI-1640 or DMEM media, respectively, supplemented with 10% fetal bovine serum (FBS), 1× Glutamax® (Gibco), and 1× Penicillin and Streptomycin (Gibco). […]
(§1) Tumor cells (5×10^4 or 1×10^5 per well, depending on the cell line) were cultured for 24 to 72 hours in 96-well plates (flat-bottom plates for adherent cell lines, U-bottom plates for suspension cell lines). […] MICA or control antibodies were added at different concentrations, and shed MICA/B was then detected in supernatants by ELISA using the Human MICA ELISA kit (Ab59569, Abcam) or Human MICB DuoSet ELISA kit (DY1599, R&D Systems), using the procedures recommended by the manufacturers. […]

[2] = test system: murine tumor cell lines (B16F10, CT26, Neuro-2a) expressing full-length MICA or MICB; test: Shed and surface MICA/MICB in murine tumor cell lines transduced with full-length MICA or MICB; format: cell-based, mouse; conditions: B16F10 cells expressing MICA or MICB; comparison among mAbs
Source text: B16F10, CT26, Neuro-2a, EL4 and RMA-S cell lines were transduced with lentiviral vector pHAGE-CMV-fullEF1a. MICA (allele 009) cDNA or other inserts were placed between NotI and BamHI cloning sites, 3′ to the EF1α promoter and 5′ to the IRES. ZsGreen or luciferase cDNAs were cloned 3′ to the IRES as fluorescence or bioluminescence reporters, respectively. The vector with the ZsGreen reporter was used to compare expression of cDNAs encoding full length MICA, full-length MICB and secreted MICA (Neuro-2a, RMA-S and/or B16F10 cell lines). CT26, EL4 and B16F10 cell lines were transduced with the vector that supported expression of the luciferase reporter. […]
as §1
MICA and MICB were detected on the cell surface by the PE-conjugated anti-MICA/B antibody (clone 6D4, 320906, Biolegend). […] All samples were acquired in a BD LSR Fortessa flow cytometer, and analyzed by FlowJo V10 software.

Chain of NKG2D binding to MICA (Q29983 24-307 T47A/C59Y/K148E/M152V/K196E/G229S/W233R/T236I/S238T/Q274R): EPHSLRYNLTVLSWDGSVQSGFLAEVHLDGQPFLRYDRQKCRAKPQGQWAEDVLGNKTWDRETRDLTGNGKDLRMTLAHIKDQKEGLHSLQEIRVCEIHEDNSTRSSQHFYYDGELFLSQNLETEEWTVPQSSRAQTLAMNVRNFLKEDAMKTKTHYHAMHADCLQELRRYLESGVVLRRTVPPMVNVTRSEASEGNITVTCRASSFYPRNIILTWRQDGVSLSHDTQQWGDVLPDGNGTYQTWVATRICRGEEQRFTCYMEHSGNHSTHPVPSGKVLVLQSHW

B1: 7C6: monoclonal antibody from mice immunized with recombinant MICA α3 domain; parental mIgG2b; VH SEQ ID NO: 7, VL SEQ ID NO: 8 (antibody)
VH: QIQLVQSGPELKKPGETVKVSCKASGYMFTNYAMNWVKQAPEKGLKWMGWINTHTGDPTYADDFKGRIAFSLETSASTAYLQINNLKNEDTATYFCVRTYGNYAMDYWGQGTSVTVSSAKTTAPSVYPLAPVCGDTTGSSVTLGCLVKGYFPEPVTLTWNSGSLSSGVHTFPAVLQSDLYTLSSSVTVTSS
VL: DIQMTQTTSSLSASLGDRVTISCSASQDISNYLNWYQQKPDGTVKLLIYDTSILHLGVPSRFSGSGSGTDYSLTISNLEPEDIATYYCQQYSKFPRTFGGGTTLEIK
modifications: mAb 7C6 heavy chain amino acid sequence; mAb 7C6 light chain amino acid sequence
NKG2D binding to MICA
  inhibition of NKG2D receptor binding to MICA: do not inhibit NKG2D receptor binding
[1]
  MICA and MICB shedding by short-term human melanoma cell lines: inhibited MICA and MICB shedding
[2]
  stabilization of MICA/B on the surface of tumor cells: most effective in stabilizing MICAS on the surface of tumor cells

Source: US12662540B2, “Compositions and methods for inhibition of MICA/B shedding” (DANA-FARBER CANCER INSTITUTE, INC., priority 2017, dated 2026)
